# B1: ZnT8B-G3H6 (amino-terminal truncated, 35 kDa isoform of human zinc transporter ZnT8 / SLC30A8) (natural protein)
# chain: MYHCHSGSKPTEKGANEYAYAKWKLCSASAICFIFMIAEVVGGHIAGSLAVVTDAAHLLIDLTSFLLSLFSLWLSSKPPSKRLTFGWHRAEILGALLSILCIWVVTGVLVYLACERLLYPDYQIQATVMIIVSSCAVAANIVLTVVLHQRCLGHNHKEVQANASVRAAFVHALGDLFQSISVLISALIIYFKPEYKIADPICTFIFSILVLASTITILKDFSILLMEGVPKSLNYSGVKELILAVDGVLSVHSLHIWSLTMNQVILSAHVATAASRDSQVVRREIAKALSKSFTMHSLTIQMESPVDQDPDCLFCEDPCD
# Target: the molecule itself
# Test: native gel or EMSA
protein,measurement,value
B1,stoichiometry N,2

# Reference: publication PMC8244513 (Current Research in Structural Biology, 2020)
